Where a chain is given by its changes, count along the chain named.
B1: VRC01 iGL IgG (antibody, V domains shown)
VH: not shown
VL: EIVLTQSPATLSLSPGERATLSCRASQSVSSYLAWYQQKPGQAPRLLIYDASNRATGIPARFSGSGSGTDFTLTISSLEPEDFAVYYCQQYEFFGQGTKLEIKR
B2: 3BNC60 iGL IgG (antibody, V domains shown)
VH: not shown
VL: DIQMTQSPSSLSASVGDRVTITCQASQDISNYLNWYQQKPGKAPKLLIYDASNLETGVPSRFSGSGSGTDFTFTISSLQPEDIATYYCQQYEFIGPGTKVDIKR
B3: IOMA IgG (antibody, V domains shown)
VH: EVQLVESGAQVKKPGASVTVSCTASGYKFTGYHMHWVRQAPGRGLEWMGWINPFRGAVKYPQNFRGRVSMTRDTSMEIFYMELSRLTSDDTAVYYCAREMFDSSADWSPWRGMVAWGQGTLVTVSS
VL: QSALTQPASVSGSPGQSITISCAGSSRDVGGFDLVSWYQQHPGKAPKLIIYEVNKRPSGISSRFSASKSGNTASLTISGLQEEDEAHYYCYSYADGVAFGGGTKLTVLG
notes: Mature CD4bs bNAb; also called mature IOMA
B4: IO-003 (antibody, V domains shown)
VH: QVQLVQSGAEVKKPGASVTVSCKASGYTFTDYFIHWVRQAPGQGLEWMGWINPFRGAVDYAQKFRGRVTMTRDTSITTAYMELSRLRSDDTAVYYCARAMFDSSDEWSPWHGLVAWGQGTLVTVSS
VL: QSALTQPASVSGSPGQSITISCTGTSRDIGSFNLVSWYQQHPGKAPKLMIYDVSKRPSGVSNRFSGSKSDNMASLIISGFQAEDEAEYFCCSFAGSLAFGGGTKLTVL
B5: IO-010 (antibody, V domains shown)
VH: QVQLVQSGAEVKKPGASVTVSCKASGYTFTGYHLHWVRQAPGQGLEWMGWINPFRGAIGYAQKFRGRVTMTRDTSIITAYMELRGLRSDDTAVYFCAREMFDSDDEWSPWRGMVAWGQGTLVTVSS
VL: QSALTQPASVSGSPGQSITISCTGTSSDIGGYNLVSWYQQHPGKAPKLMIYDVNKRPSGVSNRFSGSKSGNTASLTISGFQAEDEADYYCCSYADTLVFGGGTKLTVL
notes: also called 10-010
B6: IO-050 (antibody, V domains shown)
VH: QVQLVQSGAEVKKPGASVRVSCKASGYTFTDYEIHWVRQAPGQGLEWMGWINPFRGAVKYRQKFQGRVTMTRDPSITTAYMELSRLRSDDTARYYCAREMFDSDDEWSPWRGMVAWGQGTLVTVSS
VL: B5 VL with I29V, G31S, D52E, N54S, K55R, V98I
B7: IO-008 (antibody, V domains shown)
VH: QVQLVQSGAEVKKPGASVTVSCKASGYTFTGYELHWVRQAPGQGLEWMGWINPYRGAVKYAQKFQGRVTMTRDTSISTAYMVLNGLRSDDTAVYYCARDMFDSSDEWSPWRGMVAWGQGTPVTVSS
VL: B5 VL with I29V, G31S, N33D, D52E, N54S, F80L, T96S, L105V, V107G
B8: IO-017 (antibody, V domains shown)
VH: B5 VH with I77N, E106D
VL: B5 VL with N33D
notes: also called 10-017

target: T1, IGT2 gp120 (HIV-1 (clade C strain 426c, engineered)); test: ELISA, gp120 coated on the plate, IgG titrated

Binder | binding result
B1 | binds

target: 426c.TM4 gp120 (HIV-1 (clade C strain 426c, engineered)); test: ELISA, gp120 coated on the plate, IgG titrated

Binder | binding result
B2 | binds

target: BG505; test: Env ELISA, IgG dilution series on SOSIP trimer, area under the binding curve

Binder | binding result
B3 | binds
B4 | binds
B5 | binds
B6 | no binding
B7 | binds

target: T2, CNE20; test: as above
T2 construct: also called CNE20 SOSIP

Binder | binding result
B3 | binds
B4 | binds
B5 | binds
B6 | binds
B7 | binds
B8 | no binding

target: CNE20 N276A; test: as above

Binder | binding result
B3 | binds
B4 | binds
B5 | binds
B6 | binds
B7 | binds
B8 | binds

target: T3, CE0217 (Autologous); test: as above
T3 construct: also called CE0217 SOSIP

Binder | binding result
B3 | binds
B5 | binds
B6 | binds
B8 | binds

target: T1, IGT2 gp120; test: ELISA with gp120 (FIG. 1E, FIG. 6J)

Binder | binding result
B2 | binds

target: T4, IGT2 SOSIP (HIV-1 (clade C strain 426c, engineered)); test: SPR with SOSIP (FIG. 6I), ELISA (FIG. 1E)
T4 construct: also called SOSIP version of IGT2

Binder | binding result
B2 | binds
B1 | binds

— patent US20240033341A1 (CALIFORNIA INSTITUTE OF TECHNOLOGY, published 2024)
